According to paper PMC12384393:

Columns and labels:
[1] = target: equine LH/CGR-N299Q (equine)
[2] = target: equine lutropin hormone/choriogonadotropin receptor, wild type (equine LH/CGR-WT) (equine)
[3] = target: equine LH/CGR-N99Q (equine)
[4] = target: equine LH/CGR-N50Q (equine)
[5] = target: equine LH/CGR-N174Q (equine)
[6] = target: equine LH/CGR-N313Q (equine)
[7] = target: equine LH/CGR-N291Q (equine)
[8] = target: equine LH/CGR-N195Q (equine)
[9] = target: equine LH/CGR-N299Q (equine); remark: listed apart in the source
[10] = target: equine lutropin hormone/choriogonadotropin receptor, wild type (equine LH/CGR-WT) (equine); remark: listed apart in the source
[11] = target: equine LH/CGR-N99Q (equine); remark: listed apart in the source
[12] = target: equine LH/CGR-N50Q (equine); remark: listed apart in the source
[13] = target: equine LH/CGR-N174Q (equine); remark: listed apart in the source
[14] = target: equine LH/CGR-N313Q (equine); remark: listed apart in the source
[15] = target: equine LH/CGR-N291Q (equine); remark: listed apart in the source
[16] = target: equine LH/CGR-N195Q (equine); remark: listed apart in the source

Substance: recombinant equine chorionic gonadotropin (rec-eCG) (from UniProt P08751 21-169; P01220 25-120) (ligand)
- t1/2 of the loss of cell surface receptor (anti-VSVG ELISA on cells) after rec-eCG treatment, 0-120 min [1]: 12.8 min
- t1/2 of the loss of cell surface receptor (anti-VSVG ELISA on cells) after rec-eCG treatment, 0-120 min [2]: 5.6 min
- t1/2 of the loss of cell surface receptor (anti-VSVG ELISA on cells) after rec-eCG treatment, 0-120 min [3]: 5.2 min
- t1/2 of the loss of cell surface receptor (anti-VSVG ELISA on cells) after rec-eCG treatment, 0-120 min [4]: 5.6 min
- t1/2 of the loss of cell surface receptor (anti-VSVG ELISA on cells) after rec-eCG treatment, 0-120 min [5]: 3.3 min
- t1/2 of the loss of cell surface receptor (anti-VSVG ELISA on cells) after rec-eCG treatment, 0-120 min [6]: 13.3 min
- t1/2 of the loss of cell surface receptor (anti-VSVG ELISA on cells) after rec-eCG treatment, 0-120 min [7]: 14.3 min
- t1/2 of the loss of cell surface receptor (anti-VSVG ELISA on cells) after rec-eCG treatment, 0-120 min [8]: 31.4 min
- EC50 of the cAMP response (HTRF) of transfected CHO-K1 cells stimulated with rec-eCG for 30 min [9]: 0.0269 µg/mL
- EC50 of the cAMP response (HTRF) of transfected CHO-K1 cells stimulated with rec-eCG for 30 min [10]: 0.0237 µg/mL
- EC50 of the cAMP response (HTRF) of transfected CHO-K1 cells stimulated with rec-eCG for 30 min [11]: 0.0241 µg/mL
- EC50 of the cAMP response (HTRF) of transfected CHO-K1 cells stimulated with rec-eCG for 30 min [12]: 0.0177 µg/mL
- EC50 of the cAMP response (HTRF) of transfected CHO-K1 cells stimulated with rec-eCG for 30 min [13]: 0.179 µg/mL
- EC50 of the cAMP response (HTRF) of transfected CHO-K1 cells stimulated with rec-eCG for 30 min [14]: 0.0347 µg/mL
- EC50 of the cAMP response (HTRF) of transfected CHO-K1 cells stimulated with rec-eCG for 30 min [15]: 0.0184 µg/mL
- EC50 of the cAMP response (HTRF) of transfected CHO-K1 cells stimulated with rec-eCG for 30 min [16]: 0.136 µg/mL
